Residue numbers refer to the chain shown, from its start. In names and notes the source's numbering stands.
T1: mfPRLR.mmh (soluble monomeric macaca fascicularis PRLR) (macaca fascicularis)
T1 construct: soluble monomeric construct; also called macaca fascicularis (mf) PRLR.mmh
T1 chain: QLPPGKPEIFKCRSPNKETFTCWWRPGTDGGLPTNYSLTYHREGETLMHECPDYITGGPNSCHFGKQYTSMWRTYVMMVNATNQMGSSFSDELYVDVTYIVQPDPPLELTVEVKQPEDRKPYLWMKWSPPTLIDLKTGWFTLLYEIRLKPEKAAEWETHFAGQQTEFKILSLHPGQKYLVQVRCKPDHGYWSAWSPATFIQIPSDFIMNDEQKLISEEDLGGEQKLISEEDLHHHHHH

T2: hPRLR.mmh (soluble monomeric human PRLR) (human)
T2 construct: soluble monomeric construct
T2 chain: T1 chain with V76I, T110A, M125I, T158I, I207T

T3: hPRLR.mFc (soluble dimeric human PRLR) (human)
T3 construct: dimeric construct
T3 chain: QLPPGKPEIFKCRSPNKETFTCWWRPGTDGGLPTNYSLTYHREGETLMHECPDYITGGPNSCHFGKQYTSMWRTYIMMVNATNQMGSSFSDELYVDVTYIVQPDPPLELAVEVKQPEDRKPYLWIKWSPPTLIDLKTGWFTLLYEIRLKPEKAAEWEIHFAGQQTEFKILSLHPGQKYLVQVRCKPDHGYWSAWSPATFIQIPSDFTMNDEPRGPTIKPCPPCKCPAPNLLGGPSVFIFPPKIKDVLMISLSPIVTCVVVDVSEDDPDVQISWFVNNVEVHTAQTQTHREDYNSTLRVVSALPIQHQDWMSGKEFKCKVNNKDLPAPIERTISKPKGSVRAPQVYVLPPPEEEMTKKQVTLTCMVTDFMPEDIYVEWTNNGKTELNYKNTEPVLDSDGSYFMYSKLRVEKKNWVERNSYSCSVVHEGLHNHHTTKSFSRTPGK

T4: human prolactin receptor (PRLR) on cells (human, UniProt P16471 25-622)
T4 construct: T47D, T47D#11 and MCF7 carry the endogenous receptor; also called hPRLR; HEK293/hPRLR
T4 sequence: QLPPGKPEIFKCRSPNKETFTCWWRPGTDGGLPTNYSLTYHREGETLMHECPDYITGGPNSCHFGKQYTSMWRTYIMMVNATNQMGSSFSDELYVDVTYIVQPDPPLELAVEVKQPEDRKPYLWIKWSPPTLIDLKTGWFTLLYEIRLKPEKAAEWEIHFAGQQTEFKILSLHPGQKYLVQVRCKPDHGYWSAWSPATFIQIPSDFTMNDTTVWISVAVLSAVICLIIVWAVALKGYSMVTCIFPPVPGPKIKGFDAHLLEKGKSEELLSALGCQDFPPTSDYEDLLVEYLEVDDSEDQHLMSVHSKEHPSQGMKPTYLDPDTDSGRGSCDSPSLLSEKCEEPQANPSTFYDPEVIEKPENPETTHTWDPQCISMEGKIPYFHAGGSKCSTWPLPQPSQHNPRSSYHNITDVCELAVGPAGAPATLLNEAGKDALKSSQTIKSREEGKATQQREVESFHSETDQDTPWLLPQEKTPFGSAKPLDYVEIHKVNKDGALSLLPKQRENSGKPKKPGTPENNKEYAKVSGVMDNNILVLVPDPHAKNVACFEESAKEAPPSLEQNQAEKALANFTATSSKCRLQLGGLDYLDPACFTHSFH

T5: monkey (macaca fascicularis) PRLR on HEK293 cells (macaca fascicularis, UniProt A0A2K5WXK1 25-619)
T5 construct: also called mfPRLR; HEK293/mfPRLR
T5 sequence: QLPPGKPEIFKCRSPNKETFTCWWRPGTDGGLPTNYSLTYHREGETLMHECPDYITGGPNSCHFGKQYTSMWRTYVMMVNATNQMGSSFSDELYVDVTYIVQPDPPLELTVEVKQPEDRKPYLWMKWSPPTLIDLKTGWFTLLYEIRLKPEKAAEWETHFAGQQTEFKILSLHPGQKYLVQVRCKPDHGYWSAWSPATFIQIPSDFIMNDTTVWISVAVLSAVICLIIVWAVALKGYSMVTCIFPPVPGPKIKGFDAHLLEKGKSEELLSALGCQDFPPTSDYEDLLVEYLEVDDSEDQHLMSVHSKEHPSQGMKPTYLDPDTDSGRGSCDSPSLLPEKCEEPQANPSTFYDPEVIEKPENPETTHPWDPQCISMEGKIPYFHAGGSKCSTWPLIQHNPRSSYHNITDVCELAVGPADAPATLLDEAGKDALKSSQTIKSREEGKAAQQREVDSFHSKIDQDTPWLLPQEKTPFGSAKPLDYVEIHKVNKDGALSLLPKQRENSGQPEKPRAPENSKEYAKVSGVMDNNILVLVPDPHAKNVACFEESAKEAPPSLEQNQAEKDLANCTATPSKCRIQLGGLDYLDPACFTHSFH

T6: mouse PRLR on HEK293 cells (mouse, UniProt Q08501 20-608)
T6 construct: whole, on cells; also called mPRLR; HEK293/mPRLR
T6 sequence (looked up): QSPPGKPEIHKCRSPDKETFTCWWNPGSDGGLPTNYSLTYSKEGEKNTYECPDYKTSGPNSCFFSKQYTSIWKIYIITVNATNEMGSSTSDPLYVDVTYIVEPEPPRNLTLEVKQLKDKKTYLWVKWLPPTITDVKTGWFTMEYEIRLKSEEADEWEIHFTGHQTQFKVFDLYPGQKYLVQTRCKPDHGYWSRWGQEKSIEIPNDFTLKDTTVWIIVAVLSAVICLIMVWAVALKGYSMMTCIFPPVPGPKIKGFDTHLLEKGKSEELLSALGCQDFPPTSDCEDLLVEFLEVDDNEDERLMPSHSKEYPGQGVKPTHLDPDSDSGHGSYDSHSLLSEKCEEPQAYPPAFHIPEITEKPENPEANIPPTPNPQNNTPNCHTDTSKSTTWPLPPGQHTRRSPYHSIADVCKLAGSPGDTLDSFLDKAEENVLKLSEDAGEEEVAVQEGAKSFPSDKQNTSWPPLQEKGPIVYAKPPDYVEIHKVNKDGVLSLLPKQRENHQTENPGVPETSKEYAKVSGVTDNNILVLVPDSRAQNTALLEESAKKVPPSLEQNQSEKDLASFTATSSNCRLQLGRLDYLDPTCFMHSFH

B1: H1H6765P (antibody, human IgG1, V domains shown)
VH: EVQLVESGGGVVRPGGSLRLSCVGSGFSFDDHGMNWVRQGPGKGLEWVSGFNWNGGSTNYAESVKGRFTISRDNARNSLFLQMNSLRAEDTALYYCVRGRSGWFNDAFDVWGPGTMVTVSS
VL: EIVLTQSPGTLSLSPGERATLSCRASQTINSNYLAWYRQKPGQTPRLLIYGTSSRATGIPDRFSGSGSGTDFSLTISRLEPEDFAVFYCQQYAGLPTFGPGTKVDIK
notes: human IgG1 Fc (H1H)
B2: H1H6793P (antibody, human IgG1, V domains shown)
VH: EVQLVESGGGLVQPGGSLRLSCAASGFSFSIYAMSWFRQAPGKGLEWVSAINGRGDGTHYADSVKGRFTISRDNSKTTLYLQMSSLRAEDTAVYYCAKPVMSTNGFDIWGQGTMVTVSS
VL: DIQMTQSPSTLSASVGDRVTITCRASQSISSWLAWYQLKPGKAPKLLIYKASNLESGVPSRFSGSGSGTEFTLTISSLQPDDFATYYCQQYNIYWTFGQGTKVEIK
notes: human IgG1 Fc (H1H)
B3: H1H6782P (antibody, human IgG1, V domains shown)
VH: EVQLVESGGGLVQPGRSLRLSCAASGFTFDDYAMHWVRQAPGKGLEWVSGIIWNSGHIGYGDSVKGRFTISRDNAKKSLYLQMNSLRAEDTALYYCARDSGRYQSYFDYWGQGTLVTVSS
VL: DIQMTQSPSTLSASVGDRVTITCRASHIISSWLAWYQQKPGKAPKVLIFKASSLESGVPSRFSGSGSGTEFTLTISSLQPDDFATYYCQQYNTYSRTFGQGTKVEIK
notes: human IgG1 Fc (H1H)
B4: H1H6976N (antibody, human IgG1, V domains shown)
VH: EVQLLESGGGFVQPGGSLRLSCAASGFTFSSYAMSWVRQAPGKGLEWVSIISSNGRYTYYADSVKGRFTISRDNSKNTLYLQMNSLRAEDTAVYYCATVTGDWFDPWGQGTLVTVSS
VL: DIQLTQSPSFLSASVGDRVTITCWASQDIDISLAWYQQKPGKAPKLLIYAASTLQSGVPSKFSGSGSGTDFTLTISSLQPEDFSTYYCQQLNSYPITFGQGTRLDIK
notes: also called H2M6976N
B5: H1H6785P (antibody, human IgG1, V domains shown)
VH: EVQLVESGGGLVQPGGSLRLSCAASGFTFSSYEMNWVRQAPGKGLEWISYISSRGGTIYYADSIKGRFTIYRDNARNSLYLQMNSLRAEDTAIYYCARLSGVDIFDIWGQGTMVTVSS
VL: DIQMTQSPSSLSASVGDRVTITCRASQGISNYLAWYQQKPGKVPKLLIYFASTLQSGVPSRFSGGGSGTDFTLTISSLQPEDVATYYCQRYNSAPLTFGGGTKVEIK
notes: human IgG1 Fc (H1H)
B6: H1H6958N2 (antibody, human IgG1, V domains shown)
VH: QVQLVESGGGVVQPGRSLRLSCGASGFTFRNYGMQWVRQGPGKGLEWVTLISFDGNDKYYADSVKGRFTISRDNSKNTLFLQMNSLRTEDTAVYYCARGGDFDYWGQGTLVTVSS
VL: DIQMTQSPSSLSASVGDRVTITCRASQDIRKDLGWYQQKPGKAPKRLIYAASSLHSGVPSRFSGSGSGTEFTLTISSLQPEDFATYYCLQHNSYPMYTFGQGTKLEIK
notes: also called H2M6958N2

Molecular target: T1, mfPRLR.mmh (soluble monomeric macaca …)
Assay: SPR, 37C, mAb capture
Description: (§1) Measurements were conducted on a T200 Biacore instrument. Kinetic association (kₐ) and dissociation (kd) rate constants were determined by processing and fitting the data to a 1:1 binding model using Scrubber 2.0 curve fitting software. Binding dissociation equilibrium constants (KD) and dissociative half-lives (t_{1/2}) were calculated from the kinetic rate constants as: KD (M)=kd/kₐ; and […].

| T½ [min] | Binder |
| --- | --- |
| 215 | B1 |
| 11 | B2 |
| 15 | B3 |
| 3.7 | B4 |
| 26 | B5 |
| 8.6 | B6 |

Molecular target: T2, hPRLR.mmh (soluble monomeric human PRLR)
Assay: SPR, 37C, mAb capture
Description: as §1

| T½ [min] | Binder |
| --- | --- |
| 32 | B1 |
| 11 | B2 |
| 16 | B3 |
| 3.7 | B4 |
| 24 | B5 |
| 8.8 | B6 |

Molecular target: T3, hPRLR.mFc (soluble dimeric human PRLR)
Assay: SPR, 37C, mAb capture
Description: as §1

| T½ [min] | Binder |
| --- | --- |
| 112 | B1 |
| 81 | B2 |
| 89 | B3 |
| 82.6 | B4 |
| 99 | B5 |
| 83.3 | B6 |

Molecular target: T4, human prolactin receptor (PRLR) on cells
Assay: FACS, T47D cells (native PRLR); note: test concentration or dose not given here

| FACS Cell Binding (Fold Above Background) [fold above background] | Binder |
| --- | --- |
| 40 | B1 |
| 43 | B2 |
| 43 | B3 |
| 37 | B4 |
| 40 | B5 |
| 37 | B6 |

Molecular target: T4, human prolactin receptor (PRLR) on cells
Assay: FACS, HEK293/hPRLR cells; note: test concentration or dose not given here

| FACS Cell Binding (Fold Above Background) [fold above background] | Binder |
| --- | --- |
| 38 | B1 |
| 2 | B2 |
| 41 | B3 |
| 8 | B4 |
| 37 | B5 |
| 35 | B6 |

Molecular target: T5, monkey (macaca fascicularis) PRLR on …
Assay: FACS, HEK293/mfPRLR cells; note: test concentration or dose not given here

| FACS Cell Binding (Fold Above Background) [fold above background] | Binder |
| --- | --- |
| 27 | B1 |
| 32 | B2 |
| 32 | B3 |
| 29 | B4 |
| 26 | B5 |
| 30 | B6 |

Molecular target: T6, mouse PRLR on HEK293 cells
Assay: FACS, HEK293/mPRLR cells; note: test concentration or dose not given here

| FACS Cell Binding (Fold Above Background) [fold above background] | Binder |
| --- | --- |
| 1 | B1 |
| 2 | B2 |
| 4 | B3 |
| 1 | B4 |
| 2 | B5 |
| 1 | B6 |

Molecular target: T4, human prolactin receptor (PRLR) on cells
Assay: cell-based or functional assay

| % Internalization relative to Control I (alexa488 intensity in intracellular vesicles at 37 C, T47D cells) [%] | Binder |
| --- | --- |
| 186 | B1 |
| 180 | B2 |
| 179 | B3 |
| 170 | B4 |
| 169 | B5 |
| 169 | B6 |

From US20150056222A1 (Regeneron, published 2015)
